Molecular target: H-ficolin (human, UniProt O75636 24-299)
Experiment: SPR

Sequence of H-ficolin (O75636 24-299): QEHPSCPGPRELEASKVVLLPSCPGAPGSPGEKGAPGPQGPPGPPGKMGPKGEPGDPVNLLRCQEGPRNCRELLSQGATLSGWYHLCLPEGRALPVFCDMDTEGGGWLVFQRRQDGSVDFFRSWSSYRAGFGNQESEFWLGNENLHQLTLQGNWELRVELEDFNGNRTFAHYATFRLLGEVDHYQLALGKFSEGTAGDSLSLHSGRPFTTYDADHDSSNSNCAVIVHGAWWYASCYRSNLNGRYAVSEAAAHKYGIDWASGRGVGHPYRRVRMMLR

| Kd [nM] | Binder |
| --- | --- |
| ~1000 | LTCLVKGFYPSDI [nIgG peptide LTCLVKGFYPSDI 394-406 (peptide 6)] |
| ~1000 | DTLMISRTPEVTCVV [nIgG peptide DTLMISRTPEVTCVV 278-292 (peptide 1)] |

— article PMC3891018 (Scientific Reports, 2014)
